These results are taken from patent US20070054846A1, “Bcl-w structure and uses therefor” (priority 2002, published 2007).

Test [1] addresses T1, FLAG Bcl-xL (full-length) (UniProt Q07817 1-233).
T1 construct: also called FLAG-tagged full-length Bcl-xL; not shown: FLAG tag
Put plainly: co-immunoprecipitation from 35S-labelled 293T lysates with anti-FLAG (α-F), anti-EE (α-E) and control anti-HA (α-H) [upper right gel]. An excerpt:
FIG. 4 comprises photographic representations showing that the in vivo and in vitro binding properties of Bcl-xL resemble that of Bcl-w. FIG. 4A is a photographic representation showing that the C-terminus of Bcl-w restricts access to the binding groove in vivo. Equivalent ³⁵S-labeled 293T lysates obtained from cells co-expressing FLAG Bcl-w or Bcl-wΔC29, and EE-BimEL or BimEL-L150A, were immunoprecipitated using the anti-FLAG M2 (α-F), anti-EE (α-E) or control anti-HA (α-H) monoclonal antibodies. The immunoprecipitations were fractionated on SDS-PAGE gels. FIG. 4B is a photographic representation showing that the C-terminus of Bcl-xL restricts access to the binding groove in vivo. Co-precipitation experiments similar to those described in FIG. 4A using lysates from cells co-expressing FLAG Bcl-xL or Bcl-xLΔC24, and EE-BimL or BimL-L94A. […]
(§1) Cell culture, stable transfections into FDC-P1, transient transfections into 293T human embryonic kidney cells, metabolic labelling with ³⁵S-methionine/cysteine (NEN) and co-immunoprecipitation have been previously described (O'Connor et al., 1998, Moriishi et al., 1999; Huang et al., 1998; Wilson-Annan et al., 2003). […] The immunoprecipitates were resolved by SDS-PAGE (Novex), transferred onto nitrocellulose membranes (APB) and the proteins detected by fluorography (Amplify; APB).

The target of a further test is T2, full-length Bcl-xL (Homo sapiens, UniProt Q07817).
T2 construct: FLAG-tagged full-length Bcl-xL or a C-terminally truncated mutant (ΔC24); expressed in transfected cells
T2 sequence (Q07817 whole entry, species assumed, the tested form may be a part): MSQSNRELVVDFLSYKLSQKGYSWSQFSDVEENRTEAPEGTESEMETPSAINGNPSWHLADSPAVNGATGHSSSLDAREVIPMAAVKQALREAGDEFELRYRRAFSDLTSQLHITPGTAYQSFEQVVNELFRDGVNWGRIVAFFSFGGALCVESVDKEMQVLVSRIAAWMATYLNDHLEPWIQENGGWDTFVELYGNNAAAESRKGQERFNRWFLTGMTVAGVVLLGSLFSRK
In words: Co-immunoprecipitation from cell extracts. As to conditions: FLAG-tagged full-length Bcl-xL. The test is classed as binding.
From the text: (§2) Bcl-xL and Bcl-2 also contain hydrophobic residues at their C-termini, similar to those found in Bcl-w (FIG. 1C), yet the low level of sequence identity following α8 and the absence of 3D-structural information, makes prediction of their conformation difficult. Since BCl-xL, like Bcl-w, is only partially membrane-bound in healthy cells (Hsu et al., 1997), we compared the ability of FLAG-tagged full-length Bcl-xL or a C-terminally truncated mutant (ΔC24) to bind to BimL or the […]L94A B3 mutant.
as §1, with “^35S-methionine/cysteine” for “³⁵S-methionine/cysteine”, “2003). Briefly, mammalian pEF-based expression vectors for Bcl-w, BCl-xL, Bim, Bmf, Bad and Bik (O'Connor et al., 1998, Huang et al., 1998; Moriishi et al., 1999; Wilson-Annan et al., 2003) were transiently transfected using liposome mediated transfection (Lipofectamine™; Invitrogen).” for “2003).”

The target in another test is T3, Bcl-xLΔC24 (Homo sapiens, UniProt Q07817).
T3 construct: expressed in transfected cells
T3 sequence (Q07817 1-209 limits assumed, stated change not applied): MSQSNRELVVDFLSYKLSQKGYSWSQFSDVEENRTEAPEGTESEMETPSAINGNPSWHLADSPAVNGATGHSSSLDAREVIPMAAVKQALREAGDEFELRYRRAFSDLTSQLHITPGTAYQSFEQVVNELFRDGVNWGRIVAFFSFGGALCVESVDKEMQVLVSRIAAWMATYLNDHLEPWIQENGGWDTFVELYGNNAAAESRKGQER
In words: Co-immunoprecipitation / GST pull-down. Particulars: C-terminally truncated Bcl-xL (ΔC24). The class given is binding.
From the text: as §2
Direct interactions between Bcl-w and BimL were monitored using GST pull-down experiments. These were performed in 100 μl of PBS (phosphate buffered saline pH 7.3) containing 2 mM DTT. Typically excess soluble proteins were added to equivalent amounts of resin bound proteins. After incubation at room temperature for 30 minutes the resin was pelleted and then washed twice with 200 μl of PBS containing 0.2% Tween 20. […]
Cell culture, stable transfections into FDC-P1, transient transfections into 293T human embryonic kidney cells, metabolic labelling with ^35S-methionine/cysteine (NEN) and co-immunoprecipitation have been previously described (O'Connor et al., 1998, Moriishi et al., 1999; Huang et al., 1998; Wilson-Annan et al., 2003). […] The immunoprecipitates were resolved by SDS-PAGE (Novex), transferred onto nitrocellulose membranes (APB) and the proteins detected by fluorography (Amplify; APB).

A further test addresses T4, Bcl-wΔC10 (Homo sapiens, UniProt Q92843, A128E/Q133R).
T4 construct: made in house; host or cells: E. coli BL21(DE3)
T4 sequence (Q92843 1-183 A128E/Q133R): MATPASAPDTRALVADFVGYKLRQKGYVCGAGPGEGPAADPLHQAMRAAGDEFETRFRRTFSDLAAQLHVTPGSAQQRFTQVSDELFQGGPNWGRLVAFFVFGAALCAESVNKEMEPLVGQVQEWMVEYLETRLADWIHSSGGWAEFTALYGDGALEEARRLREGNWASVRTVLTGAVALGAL
In words: GST pull-down. The test is classed as binding. The source says: (§3) Human Bcl-w and mouse BimL were expressed as glutathione-S-transferase (GST) fusion proteins in E. coli BL21(DE3) and purified by affinity chromatography using Glutathione Sepharose (APB; Amersham Pharmacia Biotech). Following purification of the GST-fusion proteins Bcl-w and Bim were released from GST using PreScission protease (APB) and then further purified by size exclusion chromatography using a Superdex-75 column. All the purified proteins have 5 additional N-terminal residues (GPLGS) as a result of cloning. Isotopically labelled proteins were prepared as described previously (Day et al., 1999). Samples of Bcl-wΔC10 used for NMR contained ˜1.0 mM protein in 50 mM sodium phosphate (pH 6.7), 70 mM NaCl, 2 mM tris-(2-carboxyethyl) phosphine (TCEP) and 0.04% sodium azide in H2O:^2H2O (95:5). The Bcl-wΔC5 sample contained 0.4 mM protein in the same buffer. Site specific mutants of BimL and Bcl-w were generated using a PCR based strategy as described previously (Day et al., 1999). The sequence of all clones was confirmed by sequencing.
(§4) Direct interactions between Bcl-w and BimL were monitored using GST pull-down experiments. These were performed in 100 μl of PBS (phosphate buffered saline pH 7.3) containing 2 mM DTT. Typically excess soluble proteins were added to equivalent amounts of resin bound proteins. After incubation at room temperature for 30 minutes the resin was pelleted and then washed twice with 200 μl of PBS containing 0.2% Tween 20. After removal of the second wash 10 μl of SDS-PAGE sample buffer was added to each sample and the samples were boiled then loaded onto 16% polyacrylamide gels that were electrophoresed and stained with Coomassie Blue R250. The staining intensity of the bound soluble protein indicated the strength of the interaction between the two proteins.

In test [2] the target is T5, Bcl-wΔC29 (Homo sapiens, UniProt Q92843, Q133R).
T5 construct: GST (N, cleaved yes); made in house; host or cells: E. coli BL21(DE3)
T5 sequence (Q92843 1-164 Q133R): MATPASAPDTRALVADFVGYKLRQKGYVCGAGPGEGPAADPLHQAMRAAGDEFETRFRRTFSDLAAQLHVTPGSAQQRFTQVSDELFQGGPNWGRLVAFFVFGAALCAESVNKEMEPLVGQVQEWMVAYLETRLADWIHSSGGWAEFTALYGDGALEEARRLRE
Put plainly: GST pull-down. The test is classed as binding.
From the text: as §3, §4

In a further test the target is T6, Bcl-wΔC20 (Homo sapiens, UniProt Q92843, Q133R).
T6 construct: made in house; host or cells: E. coli BL21(DE3)
T6 sequence (Q92843 1-173 Q133R): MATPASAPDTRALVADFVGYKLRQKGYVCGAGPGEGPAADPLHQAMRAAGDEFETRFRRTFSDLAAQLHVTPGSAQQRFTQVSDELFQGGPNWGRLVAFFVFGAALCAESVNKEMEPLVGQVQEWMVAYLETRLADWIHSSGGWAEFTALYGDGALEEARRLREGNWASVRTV
In words: GST pull-down. The class given is binding.
From the text: as §3, §4

The target of test [3] is T7, full length Bcl-w (Homo sapiens, UniProt Q92843, Q133R).
T7 sequence (Q92843 1-193 Q133R): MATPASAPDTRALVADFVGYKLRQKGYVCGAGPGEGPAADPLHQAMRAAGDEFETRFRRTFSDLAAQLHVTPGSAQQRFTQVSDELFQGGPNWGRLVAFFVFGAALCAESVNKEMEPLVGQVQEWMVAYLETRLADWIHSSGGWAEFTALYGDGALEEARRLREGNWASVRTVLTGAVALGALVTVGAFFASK
Put plainly: BIAcore surface plasmon resonance, Bcl-w protein in solution on immobilised Bim. The class given is binding. Also on record: GST (N, cleaved yes); made in house; host or cells: E. coli BL21(DE3). Particulars: for Kd: 1:1 Langmuir model, global analysis.
From the text: as §3
(§5) Analysis of protein interactions by surface plasmon resonance was carried out on a BIAcore 2000 biosensor (BIAcore). For the immobilisation to BIAcore CM 5 sensorchips (BIAcore), wild-type or mutant Bim proteins were buffer exchanged into 20 mM Na-acetate, pH 4.5. N-hydroxysuccinimide coupling and binding analysis was done as described previously (Lackmann et al., 1997). In order to minimise mass-transport mediated effects the kinetic experiments were routinely carried out at 20 μl/min. Bcl-w binding at concentrations between 2 and 0.03 μM in running buffer (10 mM HEPES, pH 7.4, 150 mM NaCl, 3.4 mM EDTA, 0.005% Tween 20) was performed on sensorchip surfaces derivatised on parallel channels with a non-relevant protein, BimLΔC27 and BimLΔC27-L94A. The binding kinetics were derived from the sensorgrams following subtraction of baseline responses (measured on the control channel) by ‘global analysis’ using the BIA Evaluation software (vers. 3.02, BIAcore). The surface of the chip was regenerated with 50 mM 1,2-diethylamine containing 0.1% Triton X100, followed by two washes with running buffer.
For orientation: Surface plasmon resonance follows binding to a sensor surface in real time, without labels.

The target in test [4] is T7, full length Bcl-w. In words: GST pull-down. The test is classed as binding. Also on record: N-terminally FLAG-tagged full-length or C-terminally truncated Bcl-w; expressed in transfected cells; host or cells: 293T human embryonic kidney cells (pEF-based vector, transient).
From the text: as §3
Direct interactions between Bcl-w and BimL were monitored using GST pull-down experiments. These were performed in 100 μl of PBS (phosphate buffered saline pH 7.3) containing 2 mM DTT. Typically excess soluble proteins were added to equivalent amounts of resin bound proteins. […]

For test [5], the target named is T5, Bcl-wΔC29. In words: BIAcore surface plasmon resonance, truncated Bcl-w in solution on immobilised Bim. The class given is binding. As to conditions: for Kd: Bcl-w truncated by 29 residues at the C-terminus.
From the text: as §3
as §5, with “The surface of the chip was regenerated with 50 mM 1,2-diethylamine containing 0.1% Triton X100, followed by two washes with running buffer.” left out

Numbering of substitutions follows the chain as printed. In names and notes the source's numbering stands.

T1 sequence (Q07817 whole entry): as the sequence (Q07817 whole entry, species assumed, the tested form may be a part) above

B1: EE-BimL-L94A (ligand, UniProt O54918-2 1-140, looked up)
chain: MAKQPSDVSSECDREGGQLQPAERPPQLRPGAPTSLQTEPQDRSPAPMSCDKSTQTPSPPCQAFNHYLSAMASIRQSQEEPEDLRPEIRIAQEARRIGDEFNETYTRRVFANDYREAEDHPQMVILQLLRFIFRLVWRRH
notes: also called L94A mutant; not shown: EE (Glu-Glu) tag
Regarding B1, the binding result in test [1] was “no binding”.

B2: BimL-L94A: BimL with BH3 mutation L94A (protein)
chain: B1 chain
modifications: left off: small tags and cut ends
Turning to B2, the “association in cell extracts” value in the test with full-length Bcl-xL was “associates only with wild-type BimL”. Further, the binding result in the test with Bcl-xLΔC24 was “bound wild-type BimL and the L94A mutant equally”.

B3: BimLΔC27: Purified, C-terminally truncated mouse BimL, a BH3-only protein (protein)
chain: GPLGSMAKQPSDVSSECDREGGQLQPAERPPQLRPGAPTSLQTEPQDRSPAPMSCDKSTQTPSPPCQAFNHYLSAMASIRQSQEEPEDLRPEIRIAQELRRIGDEFNETYTRRVFAND
As a reminder, the Kd is the concentration at which binding is half-saturated. A low value points to higher affinity. Turning to B3, the “binding in GST pull-down” value with Bcl-wΔC10 is on record as “bound”; with Bcl-wΔC29 [2] it was “bound equally well”; with Bcl-wΔC20, “bound equally well”; with full length Bcl-w [4], “bound”. Also, the Kd in the test with full length Bcl-w [3] came out at 24 nM; in the test with Bcl-wΔC29 [5] it was 11 nM. In addition, the “increase in the association rate versus full length Bcl-w” value with Bcl-wΔC29 [5] (Bcl-wΔC29) is “three-fold”.

B4: BimLΔC27-L94A: Mutant version of C-terminally truncated BimL with BH3 domain mutation L94A (protein)
chain: B3 chain with L99A
Take B4: the “binding in GST pull-down” value in the test with Bcl-wΔC10 is given as “only bound wt BimLΔC27”; with Bcl-wΔC29 [2], “bound equally well”; in the test with Bcl-wΔC20 it was “bound equally well”; with full length Bcl-w [4], “only bound wt BimLΔC27”. In addition, the “decrease in the association rate versus wild-type Bim” value with full length Bcl-w [3] was determined as 10 fold. Besides, in the test with full length Bcl-w [3], the “increase in the dissociation rates versus wild-type Bim” value was “five-fold”. In addition, in the test with full length Bcl-w [3], the “reduction of affinity versus wild-type Bim” value was “over 60 fold”. The Kd in the test with full length Bcl-w [3] turned out to be 1600 nM; in the test with Bcl-wΔC29 [5], 13 nM.
